“Also recorded” adds a separate entry of the source.
Assays:
DRB1*0101 (DR1) = DRB1*0101 (DR1) (Homo sapiens, UniProt P01903+P01911, A100R/D57E/F55L/F60I/F76Y/I96L/L162R/M171V/P40L/Q125E/R42F/V115G/Y59C); type: binding
DRB1*0301 (DR3) = DRB1*0301 (DR3) (Homo sapiens, UniProt P01903+P01911, A100K/A102G/A103R/A169T/F55Y/I96L/K41T/L162R/M171V/P40S/Q125H/Q178H/Q39Y/R42S/S66N/T106N/T262R/W38E/Y61H); type: binding
DRB1*0401 (DR4) = DRB1*0401 (DR4) (Homo sapiens, UniProt P01903+P01911, A100K/A169T/F76Y/I96L/K127E/L162R/M171V/N62H/P40V/Q125Y/R42H/S133A/S149N/S66Y/V115G/V209L/W38E); type: binding
DRB1*0701 (DR7) = DRB1*0701 (DR7) (Homo sapiens, UniProt P01903+P01911, A100R/A102G/A103Q/D57E/D86V/E43K/F76Y/K127E/L162R/M171V/P40G/Q125H/Q99D/R33Q/R42Y/R54Q/S133A/S66F/T210M/V115G/Y107V/Y59L/Y89S); type: binding
DRB1*1101 (DR11) = DRB1*1101 (DR11) (Homo sapiens, UniProt P01903+P01911, A100R/A169T/A87E/I96F/K41T/L162R/M171V/P40S/Q125H/Q178H/Q39Y/Q99D/R42S/S66Y/T262R/V115G/W38E); type: binding
DRB1*1301 (DR13) = DRB1*1301 (DR13) (Homo sapiens, UniProt P01903+P01911, A100E/A169T/K41T/L162R/M171V/P40S/Q125H/Q178H/Q39Y/Q99D/R42S/S66N/T262R/W38E/Y61H); type: binding
DRB1*1501 (DR15) = DRB1*1501 (DR15) (Homo sapiens, UniProt P01903+P01911); type: binding
[1] = tested on: CD4^+ T cells of HLA class II transgenic mice; type: cell-based
HLA-DR molecules = type: binding, human

Sequence: VENTEKALNVYYEIGKILSR
- Relative binding affinity of peptide to HLA-DR molecules, DR1 (DRB1*0101 (DR1)): 1
- Relative binding affinity of peptide to HLA-DR molecules, DR3 (DRB1*0301 (DR3)): 418
- Relative binding affinity of peptide to HLA-DR molecules, DR4 (DRB1*0401 (DR4)): 81
- Relative binding affinity of peptide to HLA-DR molecules, DR7 (DRB1*0701 (DR7)): 36
- Relative binding affinity of peptide to HLA-DR molecules, DR11 (DRB1*1101 (DR11)): 0.03
- Relative binding affinity of peptide to HLA-DR molecules, DR13 (DRB1*1301 (DR13)): 71
- Relative binding affinity of peptide to HLA-DR molecules, DR15 (DRB1*1501 (DR15)): 0.2
- HLA-restriction based on CD4 T cell response class II HLA transgenics after priming with LF [1]: DR1
- Binding across all HLA-DR alleles assayed (HLA-DR molecules): strong to moderate binding across all seven HLA-DR alleles

Sequence: QSDLIKKVTNYLVDGNGRFV
- Relative binding affinity of peptide to HLA-DR molecules, DR1 (DRB1*0101 (DR1)): 12
- Relative binding affinity of peptide to HLA-DR molecules, DR3 (DRB1*0301 (DR3)): 26
- Relative binding affinity of peptide to HLA-DR molecules, DR4 (DRB1*0401 (DR4)): 15
- Relative binding affinity of peptide to HLA-DR molecules, DR7 (DRB1*0701 (DR7)): 4
- Relative binding affinity of peptide to HLA-DR molecules, DR11 (DRB1*1101 (DR11)): 139
- Relative binding affinity of peptide to HLA-DR molecules, DR13 (DRB1*1301 (DR13)): 38
- Relative binding affinity of peptide to HLA-DR molecules, DR15 (DRB1*1501 (DR15)): 0.2
- HLA-restriction based on CD4 T cell response class II HLA transgenics after priming with LF [1]: DR15
- Binding across all HLA-DR alleles assayed (HLA-DR molecules): strong to moderate binding across all seven HLA-DR alleles

Sequence: PESRSILLHGPSKGVELRND
- Relative binding affinity of peptide to HLA-DR molecules, DR1 (DRB1*0101 (DR1)): 7
- Relative binding affinity of peptide to HLA-DR molecules, DR3 (DRB1*0301 (DR3)): 354
- Relative binding affinity of peptide to HLA-DR molecules, DR4 (DRB1*0401 (DR4)): 22
- Relative binding affinity of peptide to HLA-DR molecules, DR7 (DRB1*0701 (DR7)): 51
- Relative binding affinity of peptide to HLA-DR molecules, DR11 (DRB1*1101 (DR11)): 120
- Relative binding affinity of peptide to HLA-DR molecules, DR13 (DRB1*1301 (DR13)): 21
- Relative binding affinity of peptide to HLA-DR molecules, DR15 (DRB1*1501 (DR15)): 17
- CD4 T cell response in LF immunized HLA transgenics [1]: elicited a T cell response in a single HLA transgenic strain; also recorded: immunodominant epitopes in HLA-DR15 transgenics
- HLA-restriction based on CD4 T cell response class II HLA transgenics after priming with LF [1]: DR15
- Binding across all HLA-DR alleles assayed (HLA-DR molecules): strong to moderate binding across all seven HLA-DR alleles

Sequence: EYIRIDAKVVPKSKIDTKIQ
- Relative binding affinity of peptide to HLA-DR molecules, DR1 (DRB1*0101 (DR1)): 3
- Relative binding affinity of peptide to HLA-DR molecules, DR3 (DRB1*0301 (DR3)): 1
- Relative binding affinity of peptide to HLA-DR molecules, DR4 (DRB1*0401 (DR4)): 15
- Relative binding affinity of peptide to HLA-DR molecules, DR7 (DRB1*0701 (DR7)): 12
- Relative binding affinity of peptide to HLA-DR molecules, DR11 (DRB1*1101 (DR11)): 21
- Relative binding affinity of peptide to HLA-DR molecules, DR13 (DRB1*1301 (DR13)): 24
- Relative binding affinity of peptide to HLA-DR molecules, DR15 (DRB1*1501 (DR15)): 156
- CD4 T cell response in LF immunized HLA transgenics [1]: elicited a T cell response in a single HLA transgenic strain
- HLA-restriction based on CD4 T cell response class II HLA transgenics after priming with LF [1]: DRI
- Binding across all HLA-DR alleles assayed (HLA-DR molecules): strong to moderate binding across all seven HLA-DR alleles

Sequence: NKALGLPKYTKLITFNVHNR
- Relative binding affinity of peptide to HLA-DR molecules, DR1 (DRB1*0101 (DR1)): 0
- Relative binding affinity of peptide to HLA-DR molecules, DR3 (DRB1*0301 (DR3)): 250
- Relative binding affinity of peptide to HLA-DR molecules, DR4 (DRB1*0401 (DR4)): 10
- Relative binding affinity of peptide to HLA-DR molecules, DR7 (DRB1*0701 (DR7)): 4
- Relative binding affinity of peptide to HLA-DR molecules, DR11 (DRB1*1101 (DR11)): 2
- Relative binding affinity of peptide to HLA-DR molecules, DR13 (DRB1*1301 (DR13)): 19
- Relative binding affinity of peptide to HLA-DR molecules, DR15 (DRB1*1501 (DR15)): 3
- HLA-restriction based on CD4 T cell response class II HLA transgenics after priming with LF [1]: DR1
- Binding across all HLA-DR alleles assayed (HLA-DR molecules): strong to moderate binding across all seven HLA-DR alleles

Sequence: LENGKLILQRNIGLEIKDVQI
- Relative binding affinity of peptide to HLA-DR molecules, DR1 (DRB1*0101 (DR1)): 0
- Strong relative binding affinity of peptide to HLA-DR molecules, DR1 (DRB1*0101 (DR1)): + (key: +: Strong binding affinity was defined in this study as a relative activity <10)
- Relative binding affinity of peptide to HLA-DR molecules, DR3 (DRB1*0301 (DR3)): 4
- Strong relative binding affinity of peptide to HLA-DR molecules, DR3 (DRB1*0301 (DR3)): + (key: +: Strong binding affinity was defined in this study as a relative activity <10)
- Relative binding affinity of peptide to HLA-DR molecules, DR4 (DRB1*0401 (DR4)): 7
- Strong relative binding affinity of peptide to HLA-DR molecules, DR4 (DRB1*0401 (DR4)): + (key: +: Strong binding affinity was defined in this study as a relative activity <10)
- Relative binding affinity of peptide to HLA-DR molecules, DR7 (DRB1*0701 (DR7)): 1
- Strong relative binding affinity of peptide to HLA-DR molecules, DR7 (DRB1*0701 (DR7)): + (key: +: Strong binding affinity was defined in this study as a relative activity <10)
- Relative binding affinity of peptide to HLA-DR molecules, DR11 (DRB1*1101 (DR11)): 3
- Strong relative binding affinity of peptide to HLA-DR molecules, DR11 (DRB1*1101 (DR11)): + (key: +: Strong binding affinity was defined in this study as a relative activity <10)
- Relative binding affinity of peptide to HLA-DR molecules, DR13 (DRB1*1301 (DR13)): 9
- Strong relative binding affinity of peptide to HLA-DR molecules, DR13 (DRB1*1301 (DR13)): + (key: +: Strong binding affinity was defined in this study as a relative activity <10)
- Relative binding affinity of peptide to HLA-DR molecules, DR15 (DRB1*1501 (DR15)): 0.04
- Strong relative binding affinity of peptide to HLA-DR molecules, DR15 (DRB1*1501 (DR15)): + (key: +: Strong binding affinity was defined in this study as a relative activity <10)
- CD4 T cell response in LF immunized HLA transgenics [1]: identified in HLA-DR1, HLA-DR4 and HLA-DR15 transgenic lines; also recorded: immunogenic in all three HLA-DR transgenic strains
- HLA-restriction based on CD4 T cell response class II HLA transgenics after priming with LF [1]: DR1, DR4, DR15
- Binding to HLA-DR1, DR4 and DR15 (HLA-DR molecules): strong binders to all three HLA-DR alleles
